The text below walks through data of US20120328623A1 (Kyowa Kirin, published 2012).

For the assay, the target named is T1, GST fusion protein wherein the extracellular domain of mouse erbB3 is fused to GST (mouse, UniProt Q61526 20-641).
T1 construct: also called merbB3-GST; merbB3; not shown: glutathione S-transferase (GST)
As to the kind of experiment: binding ELISA, GST fusion captured by anti-GST. As for the experimental part: anti-Glutathione-Transferase-Schistsoma-japonicum (Goat) (manufactured by Rockland Immunochemicals Inc., ca. No. 16979) (hereinbelow, described as “anti-GST”) prepared at 1 μg/mL by using a 50 mM carbonate buffer (pH 9) (hereinbelow, described as a “coating buffer”) was added to Maxisorp plate (NUNC; ca. No. 442404) at 50 μL/well and immobilized by incubation at 37° C. for an hour (or 4° C., ON).
After the buffer was discarded, a blocking reagent (SuperBlock® Blocking Buffer, manufactured by PIERCE) was added to the respective wells at 250 μL to 300 μL/well, followed by incubation at room temperature for 5 to 10 minutes for blocking After the blocking reagent was discarded, the herbB3-GST fusion protein, the merbB3-GST fusion protein, the hD1/mD234 fusion protein, the hD12/mD34 fusion protein, and the hD123/mD4 fusion protein which were diluted at 5 μg/mL with Tris-buffered saline (hereinbelow, described as an “assay diluent”) containing 10% Block Ace® (manufactured by Dainippon Sumitomo Pharma Co., Ltd.) and 0.1% Tween 20 were added respectively to the plates of the respective antigens at 50 μL/well, and immobilized by incubation at room temperature for an hour.
An absorbance at a wavelength of 450 nm (reference wavelength of 570 nm) was measured using a microplate reader (MTP-300; manufactured by CORONA […] Co., Ltd.).
A general note: In an ELISA, binding on a coated surface is turned into a signal by an enzyme label.

T1 sequence (Q61526 20-641): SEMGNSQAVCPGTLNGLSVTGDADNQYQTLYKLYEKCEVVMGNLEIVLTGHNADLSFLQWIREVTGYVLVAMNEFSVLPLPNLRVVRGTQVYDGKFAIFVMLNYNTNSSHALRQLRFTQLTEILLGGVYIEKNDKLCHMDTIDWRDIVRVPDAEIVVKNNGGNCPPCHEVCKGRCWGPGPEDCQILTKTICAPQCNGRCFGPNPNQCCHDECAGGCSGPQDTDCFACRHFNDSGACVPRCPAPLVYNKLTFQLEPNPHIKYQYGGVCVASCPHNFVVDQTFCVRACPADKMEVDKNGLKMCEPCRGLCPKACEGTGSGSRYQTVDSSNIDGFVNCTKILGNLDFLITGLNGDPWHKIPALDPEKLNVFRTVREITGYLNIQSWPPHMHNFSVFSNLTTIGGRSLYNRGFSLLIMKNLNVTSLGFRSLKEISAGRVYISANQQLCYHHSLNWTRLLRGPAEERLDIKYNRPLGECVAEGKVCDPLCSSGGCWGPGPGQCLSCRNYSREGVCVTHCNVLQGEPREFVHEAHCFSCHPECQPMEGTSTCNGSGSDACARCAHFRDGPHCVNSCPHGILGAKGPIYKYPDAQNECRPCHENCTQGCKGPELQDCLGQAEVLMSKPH

B1: anti-human erbB3 monoclonal antibody 12511 (antibody, V domains shown)
VH: QIQLQQSGPELVNPGASVKISCKPSGYTFTDYYINWVKQRPGQGLEWIGWIHPGGGYTKYNEKFRGKATVTVDTSANTVYMQLSSLTSDDSAVYFCARRDYGDYGFAYWGQGTLVTVSA
VL: DIVLTQSPASLAVSLGQRATISCRVSESVDSYGNSFMHWYQQKPGQPPKLLIYRASNLESGIPDRFSGSVSRTDFTLTINPVEPDDVATYYCQQTNEDPPTFGGGTKLEIK
In the case of B1, the binding result is “binds”.
